These are literature values, as cited in article PMC10947368.

The target in one data set is IL-2Rα (Homo sapiens) (UniProt P01589).
Data set [1] concerns the target IL-2Rβ/γc heterodimeric receptor (Homo sapiens) (UniProt P14784).
UniProt P14784, sequence (P14784 27-240, chain 1 of 2): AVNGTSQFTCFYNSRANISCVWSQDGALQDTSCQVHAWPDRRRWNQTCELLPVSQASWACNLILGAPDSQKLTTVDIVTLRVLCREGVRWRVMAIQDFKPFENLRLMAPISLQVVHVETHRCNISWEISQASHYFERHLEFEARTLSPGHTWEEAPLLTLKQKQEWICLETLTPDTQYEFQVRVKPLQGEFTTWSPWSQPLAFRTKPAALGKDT
UniProt P14784, sequence (P31785 23-262, chain 2 of 2, further chain): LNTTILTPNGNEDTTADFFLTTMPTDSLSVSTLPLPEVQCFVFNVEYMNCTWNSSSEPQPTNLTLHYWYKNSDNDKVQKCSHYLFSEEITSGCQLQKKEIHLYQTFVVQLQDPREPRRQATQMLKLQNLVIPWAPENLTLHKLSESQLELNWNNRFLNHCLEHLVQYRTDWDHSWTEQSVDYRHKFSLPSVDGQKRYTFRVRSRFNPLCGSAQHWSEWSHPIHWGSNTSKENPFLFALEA

UniProt P01589, sequence (P01589 22-240): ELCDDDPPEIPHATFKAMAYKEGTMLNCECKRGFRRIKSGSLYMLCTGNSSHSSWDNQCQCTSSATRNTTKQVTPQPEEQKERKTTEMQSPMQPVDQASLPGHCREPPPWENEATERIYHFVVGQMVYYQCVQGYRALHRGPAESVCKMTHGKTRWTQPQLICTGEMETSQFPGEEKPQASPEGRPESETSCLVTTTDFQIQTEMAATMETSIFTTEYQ

On to Interleukin-2 (from UniProt P60568), for which the Kd (usually the equilibrium constant for the complex coming apart) was 10 nM with IL-2Rα (Homo sapiens) and 1 nM in data set [1].
